Legend:
[1] = molecular target: VosA_(1–190) dead, quadruple mutant of VosA with the mutations K37A, K39A, R41A, and K42A (A. nidulans); test: SEC-MALS; size exclusion chromatography and subsequent mass determination using MALS
[2] = molecular target: VosA_(1–190), minimal velvet domain of VosA encompassing residues 1–190 (A. nidulans); test: SEC; Superdex 200 (16/60) gel filtration column; elution volumes compared
[3] = molecular target: VosA_(1–190), minimal velvet domain of VosA encompassing residues 1–190 (A. nidulans); test: SEC-MALS; size exclusion chromatography and subsequent mass determination using MALS
VosA full-length = molecular target: T1, VosA full-length (Aspergillus nidulans, UniProt Q5BBX1 1-430); test: EMSA; EMSA: 10 mM HEPES/NaOH pH 7.4, 150 mM NaCl, ~53 pmol DNA in 10 ul, RT 15 min; DNA:protein molar ratios 1:0.3 to 1:9; 6% PAGE, 0.5% TBE, ethidium bromide; conditions: protein: recombinant; tags: GST (N-terminal, pGEX-5X-1); chain copies: 2; blunt
T1 sequence: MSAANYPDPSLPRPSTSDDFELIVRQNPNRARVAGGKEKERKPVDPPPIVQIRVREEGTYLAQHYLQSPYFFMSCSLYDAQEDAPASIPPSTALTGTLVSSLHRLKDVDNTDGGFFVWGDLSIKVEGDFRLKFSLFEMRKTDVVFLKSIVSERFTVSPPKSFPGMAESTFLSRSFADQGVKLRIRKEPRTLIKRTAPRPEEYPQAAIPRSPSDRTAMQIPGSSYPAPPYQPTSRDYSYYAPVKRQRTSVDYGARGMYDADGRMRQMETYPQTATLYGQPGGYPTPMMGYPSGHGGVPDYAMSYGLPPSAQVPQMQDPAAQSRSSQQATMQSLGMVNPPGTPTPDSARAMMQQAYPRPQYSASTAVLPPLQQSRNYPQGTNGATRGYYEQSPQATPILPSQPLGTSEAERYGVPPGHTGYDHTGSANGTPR

VelB = VelB (Aspergillus nidulans, UniProt C8VTS4 1-369); test: as above; conditions: protein: recombinant; tags: His6 (C-terminal); blunt
VosA_N = molecular target: T2, VosA_N (Aspergillus nidulans, UniProt Q5BBX1 1-216); test: as above; conditions: protein: recombinant; tags: GST (N-terminal, pGEX-4T-3); chain copies: 2; blunt
T2 sequence: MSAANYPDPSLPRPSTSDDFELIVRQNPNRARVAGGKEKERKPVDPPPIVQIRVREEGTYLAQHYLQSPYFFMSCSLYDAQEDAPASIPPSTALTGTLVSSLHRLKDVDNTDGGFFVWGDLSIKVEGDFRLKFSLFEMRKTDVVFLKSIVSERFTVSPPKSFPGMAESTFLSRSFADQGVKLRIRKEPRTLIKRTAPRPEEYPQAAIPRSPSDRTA

VosA1-190 (VosA_cryst) = molecular target: T3, VosA1-190 (VosA_cryst) (Aspergillus nidulans, UniProt Q5BBX1 1-190); test: EMSA; weaker than VosA_N; EMSA: 10 mM HEPES/NaOH pH 7.4, 150 mM NaCl, ~53 pmol DNA in 10 ul, RT 15 min; DNA:protein molar ratios 1:0.3 to 1:9; 6% PAGE, 0.5% TBE, ethidium bromide; conditions: protein: recombinant; tags: Strep-tag (C-terminal); chain copies: 2; blunt
T3 sequence: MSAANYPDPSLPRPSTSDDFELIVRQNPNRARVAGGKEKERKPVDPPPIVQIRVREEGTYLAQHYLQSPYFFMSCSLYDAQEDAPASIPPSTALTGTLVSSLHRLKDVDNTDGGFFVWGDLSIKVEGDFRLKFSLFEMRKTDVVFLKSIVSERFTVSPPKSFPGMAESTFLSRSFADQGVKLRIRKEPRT

VeA1-224 = molecular target: T4, VeA1-224 (Aspergillus nidulans, UniProt C8VTV4 1-224); test: EMSA; binds as well as VosA1-190; EMSA: 10 mM HEPES/NaOH pH 7.4, 150 mM NaCl, ~53 pmol DNA in 10 ul, RT 15 min; DNA:protein molar ratios 1:0.3 to 1:9; 6% PAGE, 0.5% TBE, ethidium bromide; conditions: protein: recombinant; tags: Strep-tag (C-terminal); blunt
T4 sequence: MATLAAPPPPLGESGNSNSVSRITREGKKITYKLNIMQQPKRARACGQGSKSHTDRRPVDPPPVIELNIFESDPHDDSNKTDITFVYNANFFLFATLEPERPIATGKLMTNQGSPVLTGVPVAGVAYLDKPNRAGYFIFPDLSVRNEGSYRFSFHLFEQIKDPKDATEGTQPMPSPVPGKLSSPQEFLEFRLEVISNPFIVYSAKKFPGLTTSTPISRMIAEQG

VelB, sequence (C8VTS4 whole entry): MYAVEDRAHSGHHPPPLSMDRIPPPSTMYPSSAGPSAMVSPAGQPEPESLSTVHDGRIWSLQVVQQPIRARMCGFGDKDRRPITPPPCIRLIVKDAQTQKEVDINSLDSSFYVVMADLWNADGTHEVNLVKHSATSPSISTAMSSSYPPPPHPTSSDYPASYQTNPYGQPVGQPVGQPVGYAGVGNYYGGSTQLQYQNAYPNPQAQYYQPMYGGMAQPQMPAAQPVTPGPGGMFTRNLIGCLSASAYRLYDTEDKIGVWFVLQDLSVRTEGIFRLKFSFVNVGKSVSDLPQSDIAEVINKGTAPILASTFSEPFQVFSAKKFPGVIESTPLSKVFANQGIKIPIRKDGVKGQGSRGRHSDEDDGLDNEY

For “VosA_(1–190) dead, quadruple mutant of VosA with the mutations K37A, K39A, R41A, and K42A (domain or fragment)”, the stoichiometry N [1] was 2.

“VosA_(1–190), minimal velvet domain of VosA encompassing residues 1–190 (domain or fragment)” was tested, and the stoichiometry N [2] was 2 and the stoichiometry N [3] was 2.

B1: brlA 35 bp probe (OHS301/302) (dsDNA)
DNA 1: ATTCGGCGACTAGGATCTTACTGGCCGCGGCCGAG
DNA 2: CTCGGCCGCGGCCAGTAAGATCCTAGTCGCCGAAT
B1: binds (VosA full-length); no binding (VelB); binds (VosA_N). B1: binds (VosA1-190 (VosA_cryst)); binds (VeA1-224).

— publication PMC3876986, “The Velvet Family of Fungal Regulators Contains a DNA-Binding Domain Structurally Similar to NF-κB”
